Test system: MDA-MB-231 cells
Assay: MDA-MB-231 cell migration (matrixgel / transwell)
Type: cell-based
Details: 10 nM E2 or 10 ng/ml EGF alone, 20 hours
Procedure: As anordrin has been reported as an anti-angiogenic agent resulting in inhibition of cell migration and invasion (16), we studied its ability to modulate MDA-MB-231 cell migration using matrixgel. […] After 20 hours migrated cells were stained and quantified using a plate reader at 560 nm.
Transwell and flow cytometry assay: Cells were starved for 48 hours in phenol red free medium containing 5% charcoal-stripped FBS, and then changed into phenol red free medium for an additional 24 hours. Transwell was performed following the Chemicon kit instructions (CAT #ECM551). Briefly, cells were trypsinized, washed using 1×DPBS containing Ca2+ and Mg2+ (Sigma) and resuspensed in serum and phenol red free medium at a cell density of 0.5×10^6 cells/ml.

B1: EGF: EGF, binds to Her1; used at 10 ng/ml as stimulus (protein, UniProt P01133 23-1207, looked up)
Pro-epidermal growth factor: PQHWSCPEGTLAGNGNSTCVGPAPFLIFSHGNSIFRIDTEGTNYEQLVVDAGVSVIMDFHYNEKRIYWVDLERQLLQRVFLNGSRQERVCNIEKNVSGMAINWINEEVIWSNQQEGIITVTDMKGNNSHILLSALKYPANVAVDPVERFIFWSSEVAGSLYRADLDGVGVKALLETSEKITAVSLDVLDKRLFWIQYNREGSNSLICSCDYDGGSVHISKHPTQHNLFAMSLFGDRIFYSTWKMKTIWIANKHTGKDMVRINLHSSFVPLGELKVVHPLAQPKAEDDTWEPEQKLCKLRKGNCSSTVCGQDLQSHLCMCAEGYALSRDRKYCEDVNECAFWNHGCTLGCKNTPGSYYCTCPVGFVLLPDGKRCHQLVSCPRNVSECSHDCVLTSEGPLCFCPEGSVLERDGKTCSGCSSPDNGGCSQLCVPLSPVSWECDCFPGYDLQLDEKSCAASGPQPFLLFANSQDIRHMHFDGTDYGTLLSQQMGMVYALDHDPVENKIYFAHTALKWIERANMDGSQRERLIEEGVDVPEGLAVDWIGRRFYWTDRGKSLIGRSDLNGKRSKIITKENISQPRGIAVHPMAKRLFWTDTGINPRIESSSLQGLGRLVIASSDLIWPSGITIDFLTDKLYWCDAKQSVIEMANLDGSKRRRLTQNDVGHPFAVAVFEDYVWFSDWAMPSVMRVNKRTGKDRVRLQGSMLKPSSLVVVHPLAKPGADPCLYQNGGCEHICKKRLGTAWCSCREGFMKASDGKTCLALDGHQLLAGGEVDLKNQVTPLDILSKTRVSEDNITESQHMLVAEIMVSDQDDCAPVGCSMYARCISEGEDATCQCLKGFAGDGKLCSDIDECEMGVPVCPPASSKCINTEGGYVCRCSEGYQGDGIHCLDIDECQLGEHSCGENASCTNTEGGYTCMCAGRLSEPGLICPDSTPPPHLREDDHHYSVRNSDSECPLSHDGYCLHDGVCMYIEALDKYACNCVVGYIGERCQYRDLKWWELRHAGHGQQQKVIVVAVCVVVLVMLLLLSLWGAHYYRTQKLLSKNPKNPYEESSRDVRSRRPADTEDGMSSCPQPWFVVIKEHQDLKNGGQPVAGEDGQAADGSMQPTSWRQEPQLCGMGTEQGCWIPVSSDKGSCPQVMERSFHMPSYGTQTLEGGVEKPHSLLSANPLWQQRALDPPHQMELTQ
modifications: Pro-epidermal growth factor
notes: used at 10 ng/ml as stimulus
B1 was tested, and the MDA-MB-231 cell migration was “slightly enhanced”.
